Test results taken from patent US20240294569A1, “MODULATORS OF SORTILIN ACTIVITY” (Insusense ApS, priority 2021, published 2024).

Target: 6his-Sortilin (human) (UniProt Q99523)
Experiment: SPA, displacement of [3H]-neurotensin from 6his-Sortilin

Sequence of 6his-Sortilin (human) (Q99523 78-755 V650M limits assumed): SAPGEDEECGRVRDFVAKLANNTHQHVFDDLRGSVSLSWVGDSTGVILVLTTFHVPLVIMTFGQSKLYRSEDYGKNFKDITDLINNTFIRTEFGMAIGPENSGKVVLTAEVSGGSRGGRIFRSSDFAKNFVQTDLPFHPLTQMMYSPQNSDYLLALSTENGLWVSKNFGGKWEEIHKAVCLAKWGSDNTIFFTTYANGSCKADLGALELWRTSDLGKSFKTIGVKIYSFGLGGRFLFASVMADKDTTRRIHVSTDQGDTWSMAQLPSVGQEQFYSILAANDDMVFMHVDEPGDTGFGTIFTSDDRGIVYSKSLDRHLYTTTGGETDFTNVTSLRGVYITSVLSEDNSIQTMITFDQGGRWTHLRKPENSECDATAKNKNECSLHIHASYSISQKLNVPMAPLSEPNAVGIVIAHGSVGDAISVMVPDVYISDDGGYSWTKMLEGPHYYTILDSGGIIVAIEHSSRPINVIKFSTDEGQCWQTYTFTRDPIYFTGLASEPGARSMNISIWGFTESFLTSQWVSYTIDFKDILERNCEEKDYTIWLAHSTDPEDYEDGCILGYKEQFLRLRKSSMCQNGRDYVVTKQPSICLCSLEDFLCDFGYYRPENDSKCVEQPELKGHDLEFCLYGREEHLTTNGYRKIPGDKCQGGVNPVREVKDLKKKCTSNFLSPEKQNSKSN

In the case of “(S)-2-((S)-2-((S)-5-Amino-5-oxo-2-((S)-pyrrolidine-2-carboxamido)pentanamido)-3-(thiazol-4-yl)propanamido)-5,5-dimethylhexanoic acid (peptide)”, the IC50 is reported as 60 nM.
